19 sequences from the DeepSol protein solubility set can be followed below.

This data set in a line: soluble on expression in E. coli; label from the status in PepcDB or PDB records.
Consider “MGSDKIHHHHHHMPPNFHADTPLAQRMRPTTLDTIIGQEHLLAVGAPLRRLVEQGHLPSIILHGEAGIGKTTIAMLLADAVGRPFHALSALNTGVKQLREVLDSKDSLSFESPVVFIDEIHRFNKAQQDALLGAVESGDITLIGATTENPSFSVNNALLSRCQVYRLEPLTPEQISAVLQRALLEDNVLKQLSIDLQAQQTISQLAHGDARKSLNLLELAIQTADTKQSPIIIDDALVARVAQTALVRYDKDGEQHYDIVSAMIKSVRGSDPDAALYWMARMLVGGEPADFIARRLVILASEDIGNANPNALLLADAALRSVQSIGMPEARIILGQVVVYLATSAKSNSTYNAINAAMSLAEKDASPVPLHLRNGVTKLMRQQGYGQDYVYPHNYPNHYYAQNYLPDKLIGTRFYEFADNQREQHSKQFVDWLKSQAASND”, for which the “soluble on expression in E. coli” value is reported as “not soluble”.
Next, “IGEVSYGAKFVLSDDQQKILRYPNDSYDVGSYYKGEHLNDIWGLTTIGIAKSQEEMDAHLAKVDQSSVGTNWGVGDIMYADLDGDGKISNGTNKLGDTGDYRIIGNSTPRFKYGITLDAAWKGFDFSIFMQGIGKRDLWLDGCYFWGANGQGNEWQSTGFAEHWDFFRPEGDPLGANLNSYYPRVNFSGDRNTKVQTRYLQNGAYLRLKNVQLGYTLPRVWTEKAGISSVRVYVSGDNLATITSLSKIFDPEATGSLAGTGSGKLYPLQRVISVGVNVNF”: “not soluble”.
Next, “MLDDTGERIIPKNMKPMNGMLLEHLARYYFSTPYASGRVLDIACGTGYGSVMVAKTRKTEVDQVLGVDFDADVIHYAKQNYYHPKVSFLVGDAMDPYLRNQIGTFDTILSFETIEHVKDDRLFIERMRQLLKKDGTLVLSTPFGQGRGKPSDEPFHYHQLTEEEFRSLFDSFSEKEVFYQRGVTIEPKRTNVHYAFGVAVCKKLEHHHHHH”: “soluble”; “LLQLNIQNFAIVRSLDIDWQSGMTTITGETGAGKSIAIDALGLCLGDRATTNVVRPNCKKADLAATFEIKKNKMARAWLKQHELVSEHDSECILRRVISAEGRSKSYINGSQVPLVQLKEIGQLLINIHGQHDHQLIVKANQQCRLLDNYANHTPLLSAVKHYAQQWNKLNKELEMLQQSKQQREAEQQLIQYQVTELDEFSLQ”: “not soluble”.
Next, “MGSDKIHHHHHHMENIVELINVTKTFKDFSINKMDLQVKKGFVTGFIGANGAGKSTTIKMMMNLLKPDDGEVKLFGMDYTTHEKAIKERIGFVYDGNVFFEGLNLKDIKHIVGPAYKRWDDTLFYQYVDKFELPLNKAIKTFSKGMQMKASLAIALSHHAELIIMDEPTAGLDPIFRRELLDILQELMIDNDRTIFFSTHITTDLDRIADYIAFMQGGNLVFNQSIHDIDENYALVKGGLDLLDKDTEKAFVHVRRASTGFEALTNNLSAVKNIFGDTVIIERATLEDIMYYMKGGVHYV”: “not soluble”; “MLHEIPKSEILKELKRIGAKRVLIQSPEGLRREAEELAGFLEENNIEVFLHGEINYGACDPADREAKLVGCDALIHLGHSYMKLPLEVPTIFVPAFARVSVVEALKENIGEIKKLGRKIIVTTTAQHIHQLKEAKEFLESEGFEVSIGRGDSRISWPGQVLGCNYSVAKVRGEGILFIGSGIFHPLGLAVATRKKVLAIDPYTKAFSWIDPERFIRKRWAQIAKAMDAKKFGVIVSIKKGQLRLAEAKRIVKLLKKHGREARLIVMNDVNYHKLEGFPFEAYVVVACPRVPLDDYGAWRKPVLTPKEVEILLGLREEYEFDEILGGPRESDEPFGISIHSTRLEHHHHHH”: “not soluble”.
Consider “MGSDKIHHHHHHMSQQLTFADSEFSSKRRQTRKEIFLSRMENLLPWSQLLDVIEPFYPKVGNGRRPYPLETMFRIHCMQQWYSLSDEATEDALYEIASMRQFALLSLDKAIPDRTTIMNFRHLLEKHKLTRKLFKTVNQWLSDSGVMMTQGTLVDATIIEAPSSTKNKNNERDPDMHQTKKGNQWHFGMKAYIGVDAKSGLTHTLVTTAANEHDLNQLDNLLHGEEEFVSGDAGYQGAQKREELKDTNVEWLIAERPGKIRALKKRPRKNKTIINIEYLKASIRAKVEHPFRIIKCQFGFIKARYKGLMKNDSQLAMLFTLANLFTVDQMLRRQPRSV”, for which the “soluble on expression in E. coli” value is given as “not soluble”.
Next, “MPKLPLLLSFPLLFFASFAYADEDFVTCYSVLKFINANDGSRLHSHDVKYGSGSGQQSVTAVKNSDDINSHWQIFPALNAKCNRGDAIKCGDKIRLKHLTTGTFLHSHHFTAPLSKQHQEVSAFGSEAESDTGDDWTVICNGDEWLESEQFKLRHAVTGSYLSLSGQQFGRPIHGQREVVGTDSITGGSAWKVAEGIYIKHQQKDL”: “soluble”; “MRKVPIITADEAAKLIKDGDTVTTSGFVGNAIPEALDRAVEKRFLETGEPKNITYVYCGSQGNRDGRGAEHFAHEGLLKRYIAGHWATVPALGKMAMENKMEAYNVSQGALCHLFRDIASHKPGVFTKVGIGTFIDPRNGGGKVNDITKEDIVELVEIKGQEYLFYPAFPIHVALIRGTYADESGNITFEKEVAPLEGTSVCQAVKNSGGIVVVQVERVVKAGTLDPRHVKVPGIYVDYVVVADPEDHQQSLDCEYDPALSGEHRRPEVVGEPLPLSAKKVIGRRGAIELEKDVAVNLGVGAPEYVASVADEEGIVDFMTLTAESGAIGGVPAGGVRFGASYNADALIDQGYQFDYYDGGGLDLCYLGLAECDEKGNINVSRFGPRIAGCGGFINITQNTPKVFFCGTFTAGGLKVKIEDGKVIIVQEGKQKKFLKAVEQITFNGDVALANKQQVTYITERCVFLLKEDGLHLSEIAPGIDLQTQILDVMDFAPIIDRDANGQIKLMDAALFAEGLMGLKEMKS”: “soluble”.
Turning to “MYSSNYIYQHDDLELHGFLAHEEGIKQSRPAVIVAHDWSGRGEFACLKAKQLAEMGYIGFALDMYGQGQIGSNNDEKMALMQPLYSDRSLLRGRLYAALEAIKSISVVDNNRIAIIGFCFGGLCALDLARSGADIRGAVSFHGLLNKPENLASGRIKAKILALHGYDDPMAKPEQVHAFCQEMTEANVDWQMHMYGQVKHAFTNPQAHDEHLGLIYDEVAARRSWQAMSQFLQEIFN”, the “soluble on expression in E. coli” value is reported as “not soluble”.
Next, “MANLATVERYVSAAAQRGADMVVFPEATMQGFGTGRLDRVAERIDGPFATRICQLARELNIVIVVGMFSPADTHDGKQRINNVALIAHPDSVREYRKIHTYDAFGFKESDTVRPGNQLVTFPVGDVTCGIAVCYDVRFPQQFIDLARLGAEVIVLPASWADGEGKLEQWRTLTAARALDSTSYIVACDQAVAEDERAPGAPTGVGHSAVVTPDGRRIAEAGTGEELFMVNVNRDLVRRTREAIPVLADAGYNQNGE”: “not soluble”; “MKVRRTEQIYLKENDTISYMCHLSKNLYNQVNYILRQQFLKGEKLTGYRDLVKLFQEPSEIEDHNNYQRLPAQTAQWTVKKTVMAWYSFFKSMKAWKKHPDKFKGRPRLPGYKETDGEFLLVFTNQQCRIRDGILKFPKIMNMEVKTRLNENEIKLKEVRIVPQGTGYMIEIVYEKETADMPITKPKRAMGIDIGVRNLVTIGNNIHEIGIAVKAGLLKSINQYFNKELARYRSINDLQGNERKQTVKIRKLFMKRNRKVKDIMHKVSKSIVEYAKIMNIDTIVIGHNNRWKDSSNMGKKNNQNFVQLPFNMLIYQIKYKAEEIGITVIMQNEDYTSKCSFLDNESIEHHDTYMGKRIHRGIFRSATGKLIHADLQSSYNIIKKAIPEAFANGIEGIGLYPRSLSIRQMITSKGGCLEHHHHHH”: “not soluble”; “SLGRNWRSWRYAERADDLLISRGVLWREETVVPYGRMQLVEVTSGPVERHFGLASVQLHTAAAATDATIPGLDPAEAERLRDRLTELGEARSAG”: “soluble”.
Next, “GAMDPMICLGLEGTAEKTGVGIVTSDGEVLFNKTIMYKPPKQGINPREAADHHAETFPKLIKEAFEVVDKNEIDLIAFSQGPGLGPSLRVTATVARTLSLTLKKPIIGVNHCIAHIEIGKLTTEAEDPLTLYVSGGNTQVIAYVSKKYRVFGETLDIAVGNCLDQFARYVNLPHPGGPYIEELARKGKKLVDLPYTVKGMDIAFSGLLTAAMRAYDAGERLEDICYSLQEYAFSMLTEITERALAHTNKGEVMLVGGVAANNRLREMLKAMCEGQNVDFYVPPKEFCGDNGAMIAWLGLLMHKNGRWMSLDETKIIPNYRTDMVEVNWIKEIKGKKRKIPEHLIGKGAEADIKRDSYLDFDVIIKERVKKGYRDERLDENIRKSRTAREARYLALVKDFGIPAPYIFDVDLDNKRIMMSYINGKLAKDVIEDNLDIAYKIGEIVGKLHKNDVIHNDLTTSNFIFDKDLYIIDFGLGKISNLDEDKAVDLIVFKKAVLSTHHEKFDEIWERFLEGYKSVYDRWEIILELMKDVERRARYVE”: “soluble”; “MSLRVFVCGCVHGSWDIVVDEVNKLVENGTKLDLIIVAGDLEAFITESDLLSYKRPNGTQGFGSFHKIANGEKHLPCKMLVIGGNNESTDIIFQLPFGGWITPDVYFAGRASQIYFGDLLITCTSGVYNVKNYWKKVYEHFPVRKKECYSVNHTRAFSNFQVYGLTQLNIFVTHDWPSGIPKMFRDIIPKKSLVDSDDSNDFGMQDYRKILEKKQPKYWFAAHHHIKFECEPNPGTKFIAVPRVIQDNWYSLQTFDEKPGDFMISGEWINILKKTEEYMKDPSVLKDIDWDEEWTKINSLPSADLPIKVPVMEYNNDYKVQTAKFCETYGIYNPNEGHHHHHH”: “soluble”; “MGSDKIHHHHHHMEFSNAERDVFLIKIEKMIDRGALMSRYSRASDPDIRSVYEKEFKTGAKSGEEFYRRIFLEYGDESIAELTTAQMGIQNVSNVASKIIEEIRIGLSYLEKSTRYVRYDKKVDGRYLYISPERIGISGDDAKDYVQLCDNLFEFYSKALPQVEDYLRHKFPQDKLVFQNAGGKTLTEMDQNEKKIAERSYINAVRSRALDDVRYILPASTLTNIGISGNGRALIHLIQKLMEYEIPETTKLAKDIYDELKPELPQLIDDALSGHGLEIINFKKNLMGLFPYDLTGNFERIRLLSYGEEDKELRKVASLIEYPFHGDAASLYSRSSESYVKYMKELIESIRSLRANRRMKPGRAFESVNYVFELNLNYGSFRDLQRHRFLGIIRKPLTAAYGYDTPPVISAIDELKTQYDELMANSSSFYQRLREKYGPWISQYVVPFAFKYPITFSTNLSEVTYFVELRSTAQAHFDLRDIAVSMYREVSKVHPTLSRIIKFVDTADYPLGRLSAEFRKESKKAGI”: “not soluble”.
Next, “MSRGGKGGDGDTRGGGGENGNQNNKGGNDEGGNEIEVPSMEELDGLADKIADEFVSQGMKIYQTLDPETRPYPDEYREGLRSQVEELPEKFKEFYTPGPGEFTAKLDLIDELTRKLDTQAGDFNTGEISGHVHDAMDNMGEWEGALSISFRKGYLDPLYEGIIPNHGRVLALLHDNFQAMRDIYAEGRKSLKKIGEDGLSAMEQADDVDGAAVVTALTVLAAAFGLGFAGLAAVPGIATAAGVAGAAVAGGLAVASDQAPEPEEIPLAGSSAEDVLVNIYDALSKLEDDILTKEAELIDTILRGCDETLELVGDTTENSMLVPKMPDLVGTALDDYHQISEGLNQFD”: “not soluble”; “MEKKVLLTGFDPFGGETVNPSWEAVKRLNGAAEGPASIVSEQVPTVFYKSLAVLREAIKKHQPDIIICVGQAGGRMQITPERVAINLNEARIPDNEGNQPVGEDISQGGPAAYWTGLPIKRIVEEIKKEGIPAAVSYTAGTFVCNHLFYGLMDEISRHHPHIRGGFIHIPYIPEQTLQKSAPSLSLDHITKALKIAAVTAAVHEDDIETGGGELH”: “soluble”; “MALKDRFDKIISYFDTDDVSENEVHEVQERTSVQRDSRAATAQEASQRSHMTNSAEEEMIGSRPRTYTYDPNRQERQRVQRDNAYQQATPRVQNKDSVRQQREQVTIALKYPRKYEDAQEIVDLLIVNECVLIDFQYMLDAQARRCLDYIDGASRVLYGSLQKVGSSMFLLTPANVMVDIEEMNIPKTGQETSFDFDMKRRLEHHHHHH”: “not soluble”.
